Assay results taken from article PMC9210341.

What was measured:
Test in all cases: SPR
[1] = target: equine angiotensin converting enzyme 2 (residues 19-615) (horse (equine))
[2] = target: SARS-CoV-2 Beta variant receptor binding domain (residues 319-541) (SARS-CoV-2 (Beta variant)) (UniProt P0DTC2)
[3] = target: SARS-CoV-2 Delta variant receptor binding domain (residues 319-541) (SARS-CoV-2 (Delta variant)) (UniProt P0DTC2)

| Substance | fold lower affinity than hACE2 with the SARS-COV-2 PT-RBD [1] | fold decrease in affinity against the SARS-CoV-2 PT-RBD [2] | fold decrease in affinity against the SARS-CoV-2 PT-RBD [3] |
| --- | --- | --- | --- |
| SARS-CoV-2 prototype receptor binding domain (residues 319-541) (from UniProt P0DTC2 319-541) (domain or fragment) | 32.2 fold |  |  |
| equine angiotensin converting enzyme 2 (residues 19-615) (from UniProt A0A9L0TPT7 19-615) (receptor) |  | 4.1 fold | 2 fold |
